Data published in PMC2323294.
“And” between values parts separate entries of the source, which are not always exact repeats. Equal entries are not always repeated.

Molecular target: recombinant human gC1qR/HABP1/p32 (mature, amino acids 74-282) (human) (UniProt Q07021)
Assay: SEC; gel permeation chromatography of purified recombinant gC1qR/HABP1 on a Superdex 200 HR10/30 column, against molecular weight standards

stoichiometry N: 3 and 2
Substance: recombinant human gC1qR/HABP1/p32 (mature, amino acids 74-282) (from UniProt Q07021 74-282) (natural protein; other documents disagree on this pair)
